Source: PMC3248438, “Probing the SELEX Process with Next-Generation Sequencing”

Target: Streptavidin (UniProt P22629 25-183)
Assay: SPR; kon 1.5e4 M-1 s-1, koff 2.2e-3 s-1; 1:1 Langmuir fit, chi2 0.535; 900 RU chip; Binding buffer 20 mM Tris, 140 mM NaCl, 5 mM MgCl2, 2 mM CaCl2, 2 mM KCl, 0.05% Tween 20, pH 7.4; SPR at 25 C, 30 ul/min; FLAA 1 h at room temperature
Settings: protein: commercial; chain copies: 4

Chain of Streptavidin (P22629 25-183): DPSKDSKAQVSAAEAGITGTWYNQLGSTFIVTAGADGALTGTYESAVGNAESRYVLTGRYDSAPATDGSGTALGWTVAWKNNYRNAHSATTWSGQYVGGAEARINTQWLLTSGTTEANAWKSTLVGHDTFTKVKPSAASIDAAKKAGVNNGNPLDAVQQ

ATCTCCGATTGCCCCACGACGCAGTGGTCGGAGTTACTTT (ssDNA) [R10#17]
Kd: 140 nM
